Results on five variants are retold here after IntAct's records for PubMed 23084749.

B1: Protein deacetylase HDAC6 (Homo sapiens), Q9UBN7 (parent)
chain: MTSTGQDSTTTRQRRSRQNPQSPPQDSSVTSKRNIKKGAVPRSIPNLAEVKKKGKMKKLGQAMEEDLIVGLQGMDLNLEAEALAGTGLVLDEQLNEFHCLWDDSFPEGPERLHAIKEQLIQEGLLDRCVSFQARFAEKEELMLVHSLEYIDLMETTQYMNEGELRVLADTYDSVYLHPNSYSCACLASGSVLRLVDAVLGAEIRNGMAIIRPPGHHAQHSLMDGYCMFNHVAVAARYAQQKHRIRRVLIVDWDVHHGQGTQFTFDQDPSVLYFSIHRYEQGRFWPHLKASNWSTTGFGQGQGYTINVPWNQVGMRDADYIAAFLHVLLPVALEFQPQLVLVAAGFDALQGDPKGEMAATPAGFAQLTHLLMGLAGGKLILSLEGGYNLRALAEGVSASLHTLLGDPCPMLESPGAPCRSAQASVSCALEALEPFWEVLVRSTETVERDNMEEDNVEESEEEGPWEPPVLPILTWPVLQSRTGLVYDQNMMNHCNLWDSHHPEVPQRILRIMCRLEELGLAGRCLTLTPRPATEAELLTCHSAEYVGHLRATEKMKTRELHRESSNFDSIYICPSTFACAQLATGAACRLVEAVLSGEVLNGAAVVRPPGHHAEQDAACGFCFFNSVAVAARHAQTISGHALRILIVDWDVHHGNGTQHMFEDDPSVLYVSLHRYDHGTFFPMGDEGASSQIGRAAGTGFTVNVAWNGPRMGDADYLAAWHRLVLPIAYEFNPELVLVSAGFDAARGDPLGGCQVSPEGYAHLTHLLMGLASGRIILILEGGYNLTSISESMAACTRSLLGDPPPLLTLPRPPLSGALASITETIQVHRRYWRSLRVMKVEDREGPSSSKLVTKKAPQPAKPRLAERMTTREKKVLEAGMGKVTSASFGEESTPGQTNSETAVVALTQDQPSEAATGGATLAQTISEAAIGGAMLGQTTSEEAVGGATPDQTTSEETVGGAILDQTTSEDAVGGATLGQTTSEEAVGGATLAQTTSEAAMEGATLDQTTSEEAPGGTELIQTPLASSTDHQTPPTSPVQGTTPQISPSTLIGSLRTLELGSESQGASESQAPGEENLLGEAAGGQDMADSMLMQGSRGLTDQAIFYAVTPLPWCPHLVAVCPIPAAGLDVTQPCGDCGTIQENWVCLSCYQVYCGRYINGHMLQHHGNSGHPLVLSYIDLSAWCYYCQAYVHHQALLDVKNIAHQNKFGEDMPHPH
partner: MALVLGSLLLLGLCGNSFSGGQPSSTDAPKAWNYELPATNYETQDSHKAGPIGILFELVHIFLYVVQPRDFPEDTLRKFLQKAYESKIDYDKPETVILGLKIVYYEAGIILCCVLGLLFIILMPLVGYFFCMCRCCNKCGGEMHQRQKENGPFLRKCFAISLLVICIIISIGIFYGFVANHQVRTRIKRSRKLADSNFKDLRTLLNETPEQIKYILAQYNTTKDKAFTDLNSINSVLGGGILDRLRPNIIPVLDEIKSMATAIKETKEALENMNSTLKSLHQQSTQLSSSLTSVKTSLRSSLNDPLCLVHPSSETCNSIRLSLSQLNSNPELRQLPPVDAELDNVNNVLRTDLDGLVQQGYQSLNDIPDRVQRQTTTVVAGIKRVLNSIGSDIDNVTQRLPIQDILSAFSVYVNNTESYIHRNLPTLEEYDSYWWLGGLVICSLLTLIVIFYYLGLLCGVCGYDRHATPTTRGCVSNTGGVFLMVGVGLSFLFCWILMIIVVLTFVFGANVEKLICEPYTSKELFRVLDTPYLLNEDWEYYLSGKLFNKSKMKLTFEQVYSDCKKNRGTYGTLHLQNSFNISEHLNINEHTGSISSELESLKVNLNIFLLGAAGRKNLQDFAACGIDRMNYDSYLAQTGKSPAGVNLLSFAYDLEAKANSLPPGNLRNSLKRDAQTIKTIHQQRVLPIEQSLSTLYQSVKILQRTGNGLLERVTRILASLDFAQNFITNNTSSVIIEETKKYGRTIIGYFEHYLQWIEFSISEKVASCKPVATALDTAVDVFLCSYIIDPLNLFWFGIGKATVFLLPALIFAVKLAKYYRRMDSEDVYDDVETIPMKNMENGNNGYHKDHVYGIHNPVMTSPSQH

In this assay the parent is B1. The following applies: with prom1_human PROM1, O43490.
In the case of Y570E, the “effect of a mutation on the interaction” value was “disrupting interaction strength”.
Y570A: the “effect of a mutation on the interaction” value is “with no effect”.
Regarding S568E, the “effect of a mutation on the interaction” value was “disrupting interaction strength”.
As for S568A, the “effect of a mutation on the interaction” value is reported as “with no effect”.
For the variant H216A;H611A, the “effect of a mutation on the interaction” value was “with no effect”.
